From patent US20140175018A1
Where two headings read alike, the source gives them in different places.

Experiments:
[1] = target: T1, chemokine (C-X-C motif) receptor 1 (CXCR1) (human) (UniProt P25024); assay: cell-based or functional assay
T1 sequence (looked up): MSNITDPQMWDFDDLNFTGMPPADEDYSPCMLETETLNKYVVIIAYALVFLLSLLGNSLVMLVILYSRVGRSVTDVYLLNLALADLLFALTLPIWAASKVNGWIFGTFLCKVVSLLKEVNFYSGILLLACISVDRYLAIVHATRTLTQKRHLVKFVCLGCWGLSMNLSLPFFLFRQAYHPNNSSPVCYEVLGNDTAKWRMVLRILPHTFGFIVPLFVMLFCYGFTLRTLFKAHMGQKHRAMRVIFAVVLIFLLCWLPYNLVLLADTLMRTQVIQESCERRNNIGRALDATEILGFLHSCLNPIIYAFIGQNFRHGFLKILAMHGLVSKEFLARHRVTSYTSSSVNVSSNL

[2] = target: chemokine (C-X-C motif) receptor 3 (CXCR3) (human) (UniProt P49682); assay: cell-based or functional assay
[3] = target: chemokine (C-C motif) receptor 3 (CCR3) (human) (UniProt P51677); assay: blood passed through chemokine-coupled column; flow cytometry before and after
[4] = target: chemokine (C-C motif) receptor 3 (CCR3) (human) (UniProt P51677); assay: blood passed through magnetic column with RANTES-coupled MACS beads; flow cytometry before and after
[5] = target: chemokine (C-X-C motif) receptor 4 (CXCR4) (human) (UniProt P61073); assay: cell-based or functional assay
[6] = target: T2, chemokine (C-C motif) receptor 4 (CCR4) (human) (UniProt P51679); assay: cell-based or functional assay
T2 sequence (looked up): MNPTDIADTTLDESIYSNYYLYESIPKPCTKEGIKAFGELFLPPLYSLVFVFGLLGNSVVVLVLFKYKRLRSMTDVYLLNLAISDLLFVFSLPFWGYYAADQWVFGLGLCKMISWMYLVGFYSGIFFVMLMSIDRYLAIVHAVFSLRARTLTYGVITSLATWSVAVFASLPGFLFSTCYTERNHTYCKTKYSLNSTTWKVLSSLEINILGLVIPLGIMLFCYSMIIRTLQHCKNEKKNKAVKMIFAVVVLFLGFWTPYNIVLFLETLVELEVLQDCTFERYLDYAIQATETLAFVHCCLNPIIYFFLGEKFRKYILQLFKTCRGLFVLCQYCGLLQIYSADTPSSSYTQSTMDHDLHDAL

[7] = target: T1, chemokine (C-X-C motif) receptor 1 (CXCR1) (human); assay: cell-based or functional assay; remark: listed apart in the source
[8] = target: T3, chemokine (C-C motif) receptor 6 (CCR6) (human) (UniProt P51684); assay: cell-based or functional assay
T3 sequence (looked up): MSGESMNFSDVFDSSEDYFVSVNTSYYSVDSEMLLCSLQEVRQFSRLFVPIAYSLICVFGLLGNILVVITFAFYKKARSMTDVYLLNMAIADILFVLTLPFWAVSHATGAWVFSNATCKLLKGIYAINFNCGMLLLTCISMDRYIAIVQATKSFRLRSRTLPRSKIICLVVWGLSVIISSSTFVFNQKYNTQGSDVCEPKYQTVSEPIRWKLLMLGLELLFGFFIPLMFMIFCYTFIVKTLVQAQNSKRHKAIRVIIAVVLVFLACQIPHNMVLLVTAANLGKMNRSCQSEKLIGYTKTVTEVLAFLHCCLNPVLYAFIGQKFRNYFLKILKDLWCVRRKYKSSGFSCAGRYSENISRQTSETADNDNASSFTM

[9] = target: chemokine (C-C motif) receptor 7 (CCR7) (human) (UniProt P32248); assay: cell-based or functional assay
[10] = target: chemokine (C-C motif) receptor 9 (CCR9) (human) (UniProt P51686); assay: cell-based or functional assay
[11] = target: chemokine (C-C motif) receptor 9 (CCR9) (human) (UniProt P51686); assay: cell-based or functional assay; remark: listed apart in the source
[12] = target: chemokine (C-C motif) receptor 3 (CCR3) (human) (UniProt P51677); assay: cell-based or functional assay

chemokine (C-C motif) receptor 3 (CCR3) (human), sequence (P51677 whole entry): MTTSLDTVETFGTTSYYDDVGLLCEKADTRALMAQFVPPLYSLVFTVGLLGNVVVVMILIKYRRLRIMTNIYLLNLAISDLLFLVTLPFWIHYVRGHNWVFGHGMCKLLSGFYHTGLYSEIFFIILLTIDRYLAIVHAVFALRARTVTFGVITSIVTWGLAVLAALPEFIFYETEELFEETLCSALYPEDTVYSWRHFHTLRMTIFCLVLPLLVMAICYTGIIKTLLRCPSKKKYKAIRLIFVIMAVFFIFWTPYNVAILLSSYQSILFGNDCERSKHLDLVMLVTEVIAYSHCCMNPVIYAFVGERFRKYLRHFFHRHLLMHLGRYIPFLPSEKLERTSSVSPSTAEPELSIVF
chemokine (C-X-C motif) receptor 3 (CXCR3) (human), sequence (P49682 whole entry): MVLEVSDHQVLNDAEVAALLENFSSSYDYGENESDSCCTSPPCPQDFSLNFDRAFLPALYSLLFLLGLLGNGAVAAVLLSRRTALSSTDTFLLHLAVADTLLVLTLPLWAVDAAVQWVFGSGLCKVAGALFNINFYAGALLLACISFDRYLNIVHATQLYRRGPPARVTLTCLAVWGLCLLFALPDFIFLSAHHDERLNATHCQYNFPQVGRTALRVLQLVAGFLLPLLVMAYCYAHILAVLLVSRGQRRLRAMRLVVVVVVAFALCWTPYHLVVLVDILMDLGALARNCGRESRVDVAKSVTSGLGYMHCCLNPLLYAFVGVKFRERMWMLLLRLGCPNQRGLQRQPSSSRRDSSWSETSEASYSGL
recombinant native IL-8, sequence (P10145 28-99 limits assumed): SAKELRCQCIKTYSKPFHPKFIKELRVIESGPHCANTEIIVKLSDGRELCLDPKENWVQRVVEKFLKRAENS
chemokine (C-C motif) receptor 9 (CCR9) (human), sequence (P51686 whole entry): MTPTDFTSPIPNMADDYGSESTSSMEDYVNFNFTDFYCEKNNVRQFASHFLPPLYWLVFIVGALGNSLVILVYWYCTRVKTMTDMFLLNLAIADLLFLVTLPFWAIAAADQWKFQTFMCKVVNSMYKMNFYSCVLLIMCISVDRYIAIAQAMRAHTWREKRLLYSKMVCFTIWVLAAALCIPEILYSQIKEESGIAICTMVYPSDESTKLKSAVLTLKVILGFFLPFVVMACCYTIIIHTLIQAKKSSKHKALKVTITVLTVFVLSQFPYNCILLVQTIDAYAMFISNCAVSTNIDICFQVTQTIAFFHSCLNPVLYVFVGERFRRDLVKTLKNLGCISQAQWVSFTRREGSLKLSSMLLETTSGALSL
UniProt P10145, sequence (P10145 other isoform, or with tags, fused parts or gaps limits assumed): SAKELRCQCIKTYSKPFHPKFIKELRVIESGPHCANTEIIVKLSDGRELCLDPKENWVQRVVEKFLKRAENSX
recombinant native MIP-3a, sequence (P78556 27-96 limits assumed): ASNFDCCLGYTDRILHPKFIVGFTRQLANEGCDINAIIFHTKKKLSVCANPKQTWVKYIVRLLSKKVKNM
chemokine (C-X-C motif) receptor 4 (CXCR4) (human), sequence (P61073 whole entry): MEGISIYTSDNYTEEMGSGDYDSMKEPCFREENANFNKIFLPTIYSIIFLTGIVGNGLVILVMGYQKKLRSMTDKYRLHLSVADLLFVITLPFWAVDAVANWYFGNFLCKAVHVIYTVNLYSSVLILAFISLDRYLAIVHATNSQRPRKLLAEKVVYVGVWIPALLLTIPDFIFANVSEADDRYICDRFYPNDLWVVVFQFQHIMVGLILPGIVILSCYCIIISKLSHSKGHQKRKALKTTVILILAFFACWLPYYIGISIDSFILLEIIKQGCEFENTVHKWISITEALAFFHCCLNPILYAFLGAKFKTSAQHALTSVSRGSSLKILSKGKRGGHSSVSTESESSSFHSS
recombinant native TARC, sequence (Q92583 24-94 limits assumed): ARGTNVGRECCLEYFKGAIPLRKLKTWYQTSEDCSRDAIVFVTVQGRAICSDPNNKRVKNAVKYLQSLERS
UniProt Q92583, sequence (Q92583 other isoform, or with tags, fused parts or gaps limits assumed): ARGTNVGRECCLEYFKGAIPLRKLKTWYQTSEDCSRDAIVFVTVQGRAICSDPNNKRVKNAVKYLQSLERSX
chemokine (C-C motif) receptor 7 (CCR7) (human), sequence (P32248 25-378): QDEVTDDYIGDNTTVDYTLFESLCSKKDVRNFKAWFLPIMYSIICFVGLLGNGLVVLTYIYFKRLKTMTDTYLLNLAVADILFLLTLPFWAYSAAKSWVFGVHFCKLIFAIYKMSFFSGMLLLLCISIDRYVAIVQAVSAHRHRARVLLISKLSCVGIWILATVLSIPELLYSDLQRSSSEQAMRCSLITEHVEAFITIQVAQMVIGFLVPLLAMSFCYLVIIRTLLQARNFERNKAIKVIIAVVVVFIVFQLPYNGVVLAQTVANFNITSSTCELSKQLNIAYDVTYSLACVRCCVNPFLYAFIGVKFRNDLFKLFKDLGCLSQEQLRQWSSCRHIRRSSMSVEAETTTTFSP

Q: With “biotinIL-8 (6-78): IL-8 (6-78) derivatised at Lys(78) with PEG-Biotin (from UniProt P10145 28-99) (ligand)” as the substance, how does the EC50 (agonist activity, Aequorin assay) [1] read?
A: The EC50 (agonist activity, Aequorin assay) was 6.1 nM.

Q: With “biotinIP-10 (CXCL10): IP-10 derivatised with Biotin at an additional C-terminal Lysine after a PEG spacer (from UniProt P02778 22-98) (ligand)” as the substance, how does the EC50 (agonist activity, Aequorin assay) [2] read?
A: The EC50 (agonist activity, Aequorin assay) was 8.7 nM.

Q: “biotinRANTES (CCL5): RANTES derivatised at Lys(67) with Biotin (from UniProt P13501 24-91) (ligand)” was tested. Which percent reduction of chemokine receptor-expressing cells (CCR1, 3 or 5, not told apart) [3] did it give?
A: The percent reduction of chemokine receptor-expressing cells (CCR1, 3 or 5, not told apart) was 20%.

Q: What about the percent reduction of chemokine receptor-expressing cells (CCR1, 3 or 5, not told apart) [4] of the same substance?
A: Its percent reduction of chemokine receptor-expressing cells (CCR1, 3 or 5, not told apart) is 20%.

Q: How did the EC50 (agonist activity, Aequorin assay) [5] turn out when “biotinSDF-1a (CXCL12): SDF-1a derivatised at Lys(64) with Biotin (from UniProt P48061 22-67) (ligand)” was run?
A: The EC50 (agonist activity, Aequorin assay) was 17.3 nM.

Q: “biotinTARC (CCL17): TARC derivatised at Lys(72) with PEG-Biotin (from UniProt Q92583 24-94) (ligand)” was tested. Which EC50 (agonist activity, Aequorin assay) [6] did it give?
A: Its EC50 (agonist activity, Aequorin assay) is 3.1 nM.

Q: What does the source list for “recombinant native IL-8 (from UniProt P10145 28-99) (ligand)”?
A: EC50 (agonist activity, Aequorin assay) [7]: 4.1 nM; EC50 (agonist activity, Aequorin assay) [1]: 4.2 nM

Q: With “recombinant native IP-10 (from UniProt P02778 22-98) (ligand)” as the substance, how does the EC50 (agonist activity, Aequorin assay) [2] read?
A: Its EC50 (agonist activity, Aequorin assay) is 4.4 nM.

Q: For “recombinant native MIP-3a (from UniProt P78556 27-96) (ligand)”, which EC50 (agonist activity, Aequorin assay) [8] is on record?
A: Its EC50 (agonist activity, Aequorin assay) is 1 nM.

Q: “recombinant native MIP-3b (from UniProt Q99731 22-98) (ligand)” was tested. Which EC50 (agonist activity, Aequorin assay) [9] did it give?
A: The EC50 (agonist activity, Aequorin assay) was 1.6 nM.

Q: With “recombinant native TARC (from UniProt Q92583 24-94) (ligand)” as the substance, how does the EC50 (agonist activity, Aequorin assay) [6] read?
A: The EC50 (agonist activity, Aequorin assay) was 2.6 nM.

Q: With “recombinant native TECK (from UniProt O15444 24-150) (ligand)” as the substance, how does the EC50 (agonist activity, Aequorin assay) [10] read?
A: The EC50 (agonist activity, Aequorin assay) was 67.9 nM.

Q: And the EC50 (agonist activity, Aequorin assay) [11]?
A: Its EC50 (agonist activity, Aequorin assay) is 67.9 nM.

Q: With “recombinant native eotaxin (from UniProt P51671 24-97) (ligand)” as the substance, how does the EC50 (agonist, Aequorin assay) [12] read?
A: Its EC50 (agonist, Aequorin assay) is 10.7 nM.
